The target in the assay is human eIF4E (human, UniProt P06730 1-217). As to the kind of experiment: ELISA. A general note: In an ELISA, binding on a coated surface is turned into a signal by an enzyme label.
Chain of human eIF4E (P06730 whole entry): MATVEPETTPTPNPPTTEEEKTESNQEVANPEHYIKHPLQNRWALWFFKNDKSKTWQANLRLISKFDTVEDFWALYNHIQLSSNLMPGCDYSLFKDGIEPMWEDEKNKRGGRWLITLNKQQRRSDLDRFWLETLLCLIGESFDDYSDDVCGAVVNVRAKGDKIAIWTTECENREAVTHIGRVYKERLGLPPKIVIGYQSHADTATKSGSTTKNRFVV

Regarding RKKGKGKGTTVGMGKSSRRFINMYGF [GST-VPg5 fusion protein], the binding result is reported as “binds”.

(Values after article doi:10.1101/298455 (bioRxiv, 2018).)
